Laboratory results taken from US20230265168A1 (BEIJING KAWIN TECHNOLOGY SHARE, published 2023).
Substitutions are numbered along the chain they refer to.

B1: antibody 083 (antibody, human IgG1, kappa, V domains shown)
VH: EVQLVQSGAEVKKPGASVKVSCKASGYTFTYYYMHWVRQAPGQGLEWMGWINPNSGGTNYAQKFQGRVTITADKSTSTAYMELSSLRSEDTAVYYCARDVWQQGGYYYYMDVWGKGTLVTVSS
VL: not shown
B2: antibody 021-M34 (antibody, human IgG1, kappa, V domains shown)
VH: not shown
VL: DIQLTQSPSSLSASVGDRVTITCRASASISTYLNWYQQKPGKAPKLLIYAASSLQSGVPSRFSGSGSGTDFTLTISSLQPEDFATYYCQQSYSTPLTFGGGTKVDIKR
notes: 021 with X34 (LCDR1) Q to A
B3: antibody 093 (antibody, human IgG1, kappa, V domains shown)
VH: EVQLVQSGAEVKKPGASMKVSCKASGYTFTDYYIHWVRQAPGQGPEWMGWINPNSGGTNYAQKFQGRVTMTRDTSISTAYMELSRLRSDDTAVYYCARDLWNDDVDYYGMDVWGKGTMVTVSS
VL: B2 VL with A27Q, T31S, A50D, D70E, S76R, V104L, D105E
B4: antibody 021-M42 (antibody, human IgG1, kappa, V domains shown)
VH: not shown
VL: B2 VL with A27Q, S52A
notes: 021 with X42 (LCDR2) S to A
B5: antibody 021-M35 (antibody, human IgG1, kappa, V domains shown)
VH: not shown
VL: B2 VL with A27Q, S28A
notes: 021 with X35 (LCDR1) S to A
B6: antibody 021-M41 (antibody, human IgG1, kappa, V domains shown)
VH: not shown
VL: B2 VL with A27Q, A51S
notes: 021 with X41 (LCDR2) A to S
B7: antibody 095 (antibody, human IgG1, kappa, V domains shown)
VH: not shown
VL: B2 VL with A27Q, T31S, Y49S, E81G, F83L, D105E
B8: antibody 021-M40 (antibody, human IgG1, kappa, V domains shown)
VH: not shown
VL: B2 VL with A27Q, A50S
notes: 021 with X40 (LCDR2) A to S
B9: antibody 021-M39 (antibody, human IgG1, kappa, V domains shown)
VH: not shown
VL: B2 VL with A27Q, Y32A
notes: 021 with X39 (LCDR1) Y to A
B10: antibody 021-M36 (antibody, human IgG1, kappa, V domains shown)
VH: not shown
VL: B2 VL with A27Q, I29A
notes: 021 with X36 (LCDR1) I to A
B11: antibody 096 (antibody, human IgG1, kappa, V domains shown)
VH: not shown
VL: ETTLTQSPSTLSASVGDRVTITCRASQSISSYLNWYQQKPGKAPQLLIYTASSLQSGVPSRFSGSGSGTDFTLTISSLQPEDFATYYCQQSYSTPLTFGQGTRLEIKR
B12: antibody 090 (antibody, human IgG1, kappa, V domains shown)
VH: B3 VH
VL: EIVLTQSPGTLSLSPGERATLSCRASQSVSSYLAWYQQKPGQAPRLLIYGASSRATGIPARFSGSGSGTEFTLTISSLQSEDFATYYCQQSYSTPLTFGPGTKVEIKR
B13: antibody 091 (antibody, human IgG1, kappa, V domains shown)
VH: B3 VH
VL: B12 VL with G9A, G50D, S53N, E70D, Q79E, S80P, P100G, E105D

Target: T1, HBsAg protein (hepatitis B virus surface antigen) (hepatitis B virus, UniProt P03140 175-400)
T1 construct: Coated on the ELISA plate at 20 ug/ml; also called HBsAg antigen
T1 sequence (P03140 175-400, tags left off): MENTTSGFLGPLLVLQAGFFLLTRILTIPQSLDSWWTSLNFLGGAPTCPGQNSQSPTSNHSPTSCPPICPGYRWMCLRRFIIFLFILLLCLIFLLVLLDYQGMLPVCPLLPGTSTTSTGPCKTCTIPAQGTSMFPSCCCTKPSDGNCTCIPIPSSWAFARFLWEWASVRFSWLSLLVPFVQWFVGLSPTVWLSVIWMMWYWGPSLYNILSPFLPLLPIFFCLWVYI
Assay: ELISA on coated HBsAg; grade from OD450 ratio to 021 at 4 ug/ml

Binder	ratio of OD450 at 4 ug/ml to OD450 of antibody 021 at 4 ug/ml [ratio]
B1	> 1.1
B2	0.8 to 1.1
B3	> 1.1
B4	0.6 to 0.8
B5	0.8 to 1.1
B6	0.8 to 1.1
B7	> 1.1
B8	> 1.1
B9	0.4 to 0.6
B10	0.4 to 0.6
B11	> 1.1
B12	0.8 to 1.1
B13	0.8 to 1.1
